Biological target: T1, TLR8 (Homo sapiens, UniProt Q9NR97)
T1 construct: expressed in transfected cells
T1 sequence (Q9NR97 27-1041): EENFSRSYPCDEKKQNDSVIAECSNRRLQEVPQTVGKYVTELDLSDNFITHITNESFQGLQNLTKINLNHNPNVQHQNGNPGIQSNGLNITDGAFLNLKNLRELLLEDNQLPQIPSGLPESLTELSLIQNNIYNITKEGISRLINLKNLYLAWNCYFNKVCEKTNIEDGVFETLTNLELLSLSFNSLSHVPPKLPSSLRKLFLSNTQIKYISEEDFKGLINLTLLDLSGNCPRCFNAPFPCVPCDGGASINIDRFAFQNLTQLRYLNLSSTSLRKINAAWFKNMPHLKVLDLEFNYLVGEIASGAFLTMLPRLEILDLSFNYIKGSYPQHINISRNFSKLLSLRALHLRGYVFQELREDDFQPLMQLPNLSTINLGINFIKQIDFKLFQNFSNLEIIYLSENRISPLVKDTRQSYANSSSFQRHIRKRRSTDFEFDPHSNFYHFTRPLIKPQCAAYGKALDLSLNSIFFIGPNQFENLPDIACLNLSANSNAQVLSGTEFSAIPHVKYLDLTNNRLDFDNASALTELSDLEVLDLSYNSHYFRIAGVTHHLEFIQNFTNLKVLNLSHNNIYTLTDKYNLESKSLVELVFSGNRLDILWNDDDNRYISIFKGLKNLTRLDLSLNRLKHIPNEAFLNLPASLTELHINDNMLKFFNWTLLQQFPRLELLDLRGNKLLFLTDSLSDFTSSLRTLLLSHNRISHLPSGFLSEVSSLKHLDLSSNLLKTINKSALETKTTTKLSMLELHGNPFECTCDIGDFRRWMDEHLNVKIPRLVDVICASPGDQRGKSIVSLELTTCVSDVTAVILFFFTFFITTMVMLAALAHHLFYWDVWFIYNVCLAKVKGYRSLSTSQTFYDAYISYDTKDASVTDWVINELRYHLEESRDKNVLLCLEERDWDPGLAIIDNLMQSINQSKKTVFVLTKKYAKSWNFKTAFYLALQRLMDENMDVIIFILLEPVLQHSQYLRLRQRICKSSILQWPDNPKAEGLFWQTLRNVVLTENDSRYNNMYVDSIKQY
Experiment: CL075-induced NFκB reporter assay in HEK293_TLR8 cells
Assay type: cell-based
Details: peptide 1, 5 or 25 μM, 2.5 μg/ml CL075, 6 h
Protocol: FIG. 12 is a bar chart showing the effect of A467 and A464 on TLR8-induced NFκB activation in HEK293 cells. HEK293_TLR8 cells were transfected with 60 ng NFκB-Luciferase and 20 ng of TK-Renilla reporter genes, as in FIG. 11. A467 (SEQ ID NO. 23) and A464 (SEQ ID NO. 20) were added to the cells at a concentration of 1, 5 or 25 μM the next day and cells were stimulated with 2.5 μg/ml CL075 1 hour after treatment with the peptide. Cells were harvested and assayed for NFκB activation by reporter gene assay 6 hr after stimulation with the agonist. No peptides were added to the control wells (black bars). Data is representative of at least three experiments each performed in triplicate. Data are expressed as mean fold induction±s.d. relative to control levels;
HEK293 cells were transfected using GeneJuice® a proprietary non-toxic transfection reagent. 200 μl/well cells at a density of 1×10^5 cells/ml were seeded the day before transfection. 0.8 μl of GeneJuice was mixed with 9.2 μl of serum-free DMEM (SFM) per transfection and incubated for 5 min at room temperature before adding the appropriate amount of the plasmid DNA. The GeneJuice/SFM/DNA mixture was then incubated at room temperature for 15 min before adding to the cells. […] Luciferase activity was analysed using a luminometer. […]

With KYSFKLILAEYRRRRRRRRR [Peptide A464] the “inhibition of TLR8-dependent NFκB activation” value was “neither A467 (SEQ ID No. 23) nor A464 (SEQ ID No. 20) had any inhibitory effect”.
